Measurements: article PMC7959245 (The Plant journal : for cell and molecular biology, 2020)

Target: T1, MBP-COP1 (Arabidopsis thaliana, UniProt P43254 1-675)
T1 sequence (looked up): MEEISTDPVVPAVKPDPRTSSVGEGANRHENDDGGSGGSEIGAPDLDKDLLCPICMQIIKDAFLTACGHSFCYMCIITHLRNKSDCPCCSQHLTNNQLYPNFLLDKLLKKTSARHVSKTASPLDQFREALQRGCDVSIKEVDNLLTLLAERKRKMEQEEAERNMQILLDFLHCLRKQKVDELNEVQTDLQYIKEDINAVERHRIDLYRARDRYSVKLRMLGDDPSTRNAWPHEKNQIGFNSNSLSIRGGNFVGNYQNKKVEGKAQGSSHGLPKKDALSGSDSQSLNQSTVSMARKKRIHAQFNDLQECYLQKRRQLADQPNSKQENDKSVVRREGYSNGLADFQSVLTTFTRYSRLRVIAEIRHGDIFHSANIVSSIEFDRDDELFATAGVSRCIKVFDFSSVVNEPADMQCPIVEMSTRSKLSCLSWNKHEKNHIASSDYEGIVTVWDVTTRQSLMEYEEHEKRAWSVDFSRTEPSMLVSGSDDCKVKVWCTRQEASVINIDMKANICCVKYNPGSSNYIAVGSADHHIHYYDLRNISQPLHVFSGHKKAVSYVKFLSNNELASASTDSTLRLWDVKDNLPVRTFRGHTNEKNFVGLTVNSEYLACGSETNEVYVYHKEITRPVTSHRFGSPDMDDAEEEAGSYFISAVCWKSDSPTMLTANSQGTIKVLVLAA
Experiment: pull-down

binding result: binds
B1: GST-HEC2 (natural protein, Arabidopsis thaliana, UniProt Q9SND4 1-231, looked up)
chain: MDNSDILMNMMMQQMEKLPEHFSNSNPNPNPHNIMMLSESNTHPFFFNPTHSHLPFDQTMPHHQPGLNFRYAPSPSSSLPEKRGGCSDNANMAAMREMIFRIAVMQPIHIDPESVKPPKRKNVRISKDPQSVAARHRRERISERIRILQRLVPGGTKMDTASMLDEAIHYVKFLKKQVQSLEEHAVVNGGGMTAVAGGALAGTVGGGYGGKGCGIMRSDHHQMLGNAQILR
